In patent publication US20240270846A1 (published 2024):
Residue numbers refer to the chain shown, from its start. Numbers in names are those of the source.

B1: GLS3000 R29A one-arm antibody (H chain CE115HA000) (antibody, human IgG1, kappa, L234A L235A, N297A, name in Kabat numbering)
heavy: QVQLVESGGGVVQPGRSLRLSCAASGFTFSNAWMHWVRQAPGKGLEWVAQIKAKSNNYATYYAESVKGRFTISRDDSKNSLYLQMNSLKTEDTAVYYCRYVHYGAYYGVDAWGQGTTVTVSSASTKGPSVFPLAPSSKSTSGGTAALGCLVKDYFPEPVTVSWNSGALTSGVHTFPAVLQSSGLYSLSSVVTVPSSSLGTQTYICNVNHKPSNTKVDKKVEPKSCDKTHTCPPCPAPEAAGGPSVFLFPPKPKDTLMISRTPEVTCVVVDVSHEDPEVKFNWYVDGVEVHNAKTKPREEQYASTYRVVSVLTVLHQDWLNGKEYKCKVSNKALPAPIEKTISKAKGQPREPQVYTLPPSRCELTKNQVSLSCAVKGFYPSDIAVEWESNGQPENNYKTTPPVLDSDGSFFLVSKLTVDKSRWQQGNVFSCSVMHEALHNHYTQKSLSLSPDYKDDDDK
chain: EPKSSDKTHTCPPCPAPELLGGPSVFLFPPKPKDTLMISRTPEVTCVVVDVSHEDPEVKFNWYVDGVEVHNAKTKPREEQYNSTYRVVSVLTVLHQDWLNGKEYKCKVSNKALPAPIEKTISKAKGQPREPQVCTLPPSRDELTKNQVSLWCLVKGFYPSDIAVEWESNGQPENNYKTTPPVLDSDGSFFLYSKLTVDKSRWQQGNVFSCSVMHEALHNRYTQKSLSLSP
light: DIVMTQSPLSLPVTPGEPASISCRSSQSLVHSNANTYLHWYQQKPGQAPRLLIYKVSNRFSGVPDRFSGSGSGTDFTLKISRVEAEDVGVYYCGQGTQVPYTFGQGTKLEIKRTVAAPSVFIFPPSDEQLKSGTASVVCLLNNFYPREAKVQWKVDNALQSGNSQESVTEQDSKDSTYSLSSTLTLSKADYEKHKVYACEVTHQGLSSPVTKSFNRGEC
notes: one-arm antibody
B2: GLS3000 R54A one-arm antibody (H chain CE115HA000) (antibody, human IgG1, kappa, L234A L235A, N297A, name in Kabat numbering)
heavy: B1 heavy
chain: B1 chain
light: B1 light with A34R, R59A
notes: one-arm antibody
B3: GLS3000 S27aD one-arm antibody (H chain CE115HA000) (antibody, human IgG1, kappa, L234A L235A, N297A, name in Kabat numbering)
heavy: B1 heavy
chain: B1 chain
light: B1 light with S28D, A34R
notes: one-arm antibody
B4: GLS3000 R54D one-arm antibody (H chain CE115HA000) (antibody, human IgG1, kappa, L234A L235A, N297A, name in Kabat numbering)
heavy: B1 heavy
chain: B1 chain
light: B1 light with A34R, R59D
notes: one-arm antibody
B5: GLS3000 S26P one-arm antibody (H chain CE115HA000) (antibody, human IgG1, kappa, L234A L235A, N297A, name in Kabat numbering)
heavy: B1 heavy
chain: B1 chain
light: B1 light with S26P, A34R
notes: one-arm antibody
B6: GLS3000 S26E one-arm antibody (H chain CE115HA000) (antibody, human IgG1, kappa, L234A L235A, N297A, name in Kabat numbering)
heavy: B1 heavy
chain: B1 chain
light: B1 light with S26E, A34R
notes: one-arm antibody
B7: GLS3000 S25T one-arm antibody (H chain CE115HA000) (antibody, human IgG1, kappa, L234A L235A, N297A, name in Kabat numbering)
heavy: B1 heavy
chain: B1 chain
light: B1 light with S25T, A34R
notes: one-arm antibody
B8: GLS3000 R29L one-arm antibody (H chain CE115HA000) (antibody, human IgG1, kappa, L234A L235A, N297A, name in Kabat numbering)
heavy: B1 heavy
chain: B1 chain
light: B1 light with A34L
notes: one-arm antibody
B9: GLS3000 R29I one-arm antibody (H chain CE115HA000) (antibody, human IgG1, kappa, L234A L235A, N297A, name in Kabat numbering)
heavy: B1 heavy
chain: B1 chain
light: B1 light with A34I
notes: one-arm antibody
B10: GLS3000 R29Y one-arm antibody (H chain CE115HA000) (antibody, human IgG1, kappa, L234A L235A, N297A, name in Kabat numbering)
heavy: B1 heavy
chain: B1 chain
light: B1 light with A34Y
notes: one-arm antibody
B11: GLS3000 S25E one-arm antibody (H chain CE115HA000) (antibody, human IgG1, kappa, L234A L235A, N297A, name in Kabat numbering)
heavy: B1 heavy
chain: B1 chain
light: B1 light with S25E, A34R
notes: one-arm antibody
B12: GLS3000 S25A one-arm antibody (H chain CE115HA000) (antibody, human IgG1, kappa, L234A L235A, N297A, name in Kabat numbering)
heavy: B1 heavy
chain: B1 chain
light: B1 light with S25A, A34R
notes: one-arm antibody
B13: GLS3000 S26D one-arm antibody (H chain CE115HA000) (antibody, human IgG1, kappa, L234A L235A, N297A, name in Kabat numbering)
heavy: B1 heavy
chain: B1 chain
light: B1 light with S26D, A34R
notes: one-arm antibody
B14: GLS3000 S27aP one-arm antibody (H chain CE115HA000) (antibody, human IgG1, kappa, L234A L235A, N297A, name in Kabat numbering)
heavy: B1 heavy
chain: B1 chain
light: B1 light with S28P, A34R
notes: one-arm antibody
B15: GLS3000 S27aI one-arm antibody (H chain CE115HA000) (antibody, human IgG1, kappa, L234A L235A, N297A, name in Kabat numbering)
heavy: B1 heavy
chain: B1 chain
light: B1 light with S28I, A34R
notes: one-arm antibody
B16: GLS3000 R29G one-arm antibody (H chain CE115HA000) (antibody, human IgG1, kappa, L234A L235A, N297A, name in Kabat numbering)
heavy: B1 heavy
chain: B1 chain
light: B1 light with A34G
notes: one-arm antibody
B17: GLS3000 R29P one-arm antibody (H chain CE115HA000) (antibody, human IgG1, kappa, L234A L235A, N297A, name in Kabat numbering)
heavy: B1 heavy
chain: B1 chain
light: B1 light with A34P
notes: one-arm antibody
B18: GLS3000 S25P one-arm antibody (H chain CE115HA000) (antibody, human IgG1, kappa, L234A L235A, N297A, name in Kabat numbering)
heavy: B1 heavy
chain: B1 chain
light: B1 light with S25P, A34R
notes: one-arm antibody
B19: GLS3000 R29S one-arm antibody (H chain CE115HA000) (antibody, human IgG1, kappa, L234A L235A, N297A, name in Kabat numbering)
heavy: B1 heavy
chain: B1 chain
light: B1 light with A34S
notes: one-arm antibody
B20: GLS3000 R29V one-arm antibody (H chain CE115HA000) (antibody, human IgG1, kappa, L234A L235A, N297A, name in Kabat numbering)
heavy: B1 heavy
chain: B1 chain
light: B1 light with A34V
notes: one-arm antibody
B21: GLS3000 S25M one-arm antibody (H chain CE115HA000) (antibody, human IgG1, kappa, L234A L235A, N297A, name in Kabat numbering)
heavy: B1 heavy
chain: B1 chain
light: B1 light with S25M, A34R
notes: one-arm antibody
B22: GLS3000 S25I one-arm antibody (H chain CE115HA000) (antibody, human IgG1, kappa, L234A L235A, N297A, name in Kabat numbering)
heavy: B1 heavy
chain: B1 chain
light: B1 light with S25I, A34R
notes: one-arm antibody
B23: GLS3000 R29D one-arm antibody (H chain CE115HA000) (antibody, human IgG1, kappa, L234A L235A, N297A, name in Kabat numbering)
heavy: B1 heavy
chain: B1 chain
light: B1 light with A34D
notes: one-arm antibody
B24: GLS3000 S27eA one-arm antibody (H chain CE115HA000) (antibody, human IgG1, kappa, L234A L235A, N297A, name in Kabat numbering)
heavy: B1 heavy
chain: B1 chain
light: B1 light with S32A, A34R
notes: one-arm antibody
B25: GLS3000 S27aN one-arm antibody (H chain CE115HA000) (antibody, human IgG1, kappa, L234A L235A, N297A, name in Kabat numbering)
heavy: B1 heavy
chain: B1 chain
light: B1 light with S28N, A34R
notes: one-arm antibody
B26: GLS3000 S25D one-arm antibody (H chain CE115HA000) (antibody, human IgG1, kappa, L234A L235A, N297A, name in Kabat numbering)
heavy: B1 heavy
chain: B1 chain
light: B1 light with S25D, A34R
notes: one-arm antibody
B27: GLS3000 R29T one-arm antibody (H chain CE115HA000) (antibody, human IgG1, kappa, L234A L235A, N297A, name in Kabat numbering)
heavy: B1 heavy
chain: B1 chain
light: B1 light with A34T
notes: one-arm antibody
B28: GLS3000 S25V one-arm antibody (H chain CE115HA000) (antibody, human IgG1, kappa, L234A L235A, N297A, name in Kabat numbering)
heavy: B1 heavy
chain: B1 chain
light: B1 light with S25V, A34R
notes: one-arm antibody
B29: GLS3000 S27aG one-arm antibody (H chain CE115HA000) (antibody, human IgG1, kappa, L234A L235A, N297A, name in Kabat numbering)
heavy: B1 heavy
chain: B1 chain
light: B1 light with S28G, A34R
notes: one-arm antibody
B30: GLS3000 S27aY one-arm antibody (H chain CE115HA000) (antibody, human IgG1, kappa, L234A L235A, N297A, name in Kabat numbering)
heavy: B1 heavy
chain: B1 chain
light: B1 light with S28Y, A34R
notes: one-arm antibody
B31: GLS3000 S27aE one-arm antibody (H chain CE115HA000) (antibody, human IgG1, kappa, L234A L235A, N297A, name in Kabat numbering)
heavy: B1 heavy
chain: B1 chain
light: B1 light with S28E, A34R
notes: one-arm antibody
B32: GLS3000 S25L one-arm antibody (H chain CE115HA000) (antibody, human IgG1, kappa, L234A L235A, N297A, name in Kabat numbering)
heavy: B1 heavy
chain: B1 chain
light: B1 light with S25L, A34R
notes: one-arm antibody

molecular target: T1, CD3 epsilon homodimer protein (UniProt P07766 23-126); test: SPR, CD3e homodimer on chip;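 also: surface plasmon resonance at 25 degrees C, antibodies flowed as analyte over CD3 epsilon homodimer amine-coupled to a CM4 chip, running buffer HBS-EP+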
T1 construct: also called CD3 (CD3 epsilon)
T1 sequence (P07766 23-126): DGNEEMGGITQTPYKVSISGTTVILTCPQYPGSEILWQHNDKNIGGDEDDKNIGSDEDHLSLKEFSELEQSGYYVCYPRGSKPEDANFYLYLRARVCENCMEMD

| ratio of amounts bound (altered form / unaltered GLS3000 antibody) | Binder |
| --- | --- |
| 0.63 | B1 |
| 0.69 | B2 |
| 0.79 | B3 |
| 0.36 | B4 |
| 0.78 | B5 |
| 0.74 | B6 |
| 0.83 | B7 |
| 0.56 | B8 |
| 0.37 | B9 |
| 0.69 | B10 |
| 0.21 | B11 |
| 0.92 | B12 |
| 0.86 | B13 |
| 0.99 | B14 |
| 1 | B15 |
| 0.67 | B16 |

| ratio of amounts bound (altered form / unaltered GLS3000 antibody) | Binder |
| --- | --- |
| 0.31 | B17 |
| 1.01 | B18 |
| 0.68 | B19 |
| 0.34 | B20 |
| 0.31 | B21 |
| 0.53 | B22 |
| 0.41 | B23 |
| 1.03 | B24 |
| 1.1 | B25 |
| 0.18 | B26 |
| 0.63 | B27 |
| 0.73 | B28 |
| 1.03 | B29 |
| 1.1 | B30 |
| 0.81 | B31 |
| 0.24 | B32 |
